Laboratory results from publication PMC9352680, “A comprehensive thermodynamic model for RNA binding by the Saccharomyces cerevisiae Pumilio protein PUF4”.

T1: PUF4 RNA-binding domain (Saccharomyces cerevisiae, UniProt P25339 537-888)
T1 sequence: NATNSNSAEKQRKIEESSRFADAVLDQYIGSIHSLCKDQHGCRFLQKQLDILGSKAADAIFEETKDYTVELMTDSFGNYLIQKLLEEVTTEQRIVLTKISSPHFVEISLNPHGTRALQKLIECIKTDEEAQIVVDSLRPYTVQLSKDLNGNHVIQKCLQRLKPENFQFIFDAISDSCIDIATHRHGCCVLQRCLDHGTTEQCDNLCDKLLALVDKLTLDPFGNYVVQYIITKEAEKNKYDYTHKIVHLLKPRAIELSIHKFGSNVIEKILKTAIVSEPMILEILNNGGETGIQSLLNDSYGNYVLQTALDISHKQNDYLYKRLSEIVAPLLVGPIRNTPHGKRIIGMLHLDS


Biological target: T1, PUF4 RNA-binding domain
Assay: Mg; RNA-MaP; 20 mM Na-HEPES pH 7.4, 30 mM KOAc, 0.75 mM MgCl2, 0.1% Tween-20, 5% glycerol, 0.1 mg/mL BSA, 2 mM DTT; 25 C; 0.0125-409.6 nM protein
Settings: tags: N-His6-TEV cleaved; C-SNAP kept, Cy3B-labelled; label: tethered on chip by stalled RNA polymerase

| Binder | Kd [nM] |
| --- | --- |
| UCUCUUUGUAUUUAUCUCUU (ssRNA) [Ia_S1_P3E.1_K3.1_C3.1_H3.1_A3.1_[A6T]_F3.1_T3.1] | 36.2 |
| UCUCUUUGUAUCAUUUCUCUU (ssRNA) [Ic_S1_P4E.1_K4.1_C4.1_H4.1_A4.1_[A6C]_[T7A]_F4.1_[A9T]_T4.1] | 11.2 |
| UCUCUUUGUAUGUAGUCUCUU (ssRNA) [Ic_S1_P4E.1_K4.1_C4.1_H4.1_A4.1_[A6G]_F4.1_[T8A]_[A9G]_T4.1] | 106 |
| UCUCUUUGUAUCCAAUCUCUU (ssRNA) [Ic_S1_P4E.1_K4.1_C4.1_H4.1_A4.1_[A6C]_[T7C]_F4.1_[T8A]_T4.1] | 1050 |
| UCUCUUUGUAUCCCAUCUCUU (ssRNA) [Ic_S1_P4E.1_K4.1_C4.1_H4.1_A4.1_[A6C]_[T7C]_F4.1_[T8C]_T4.1] | 709 |
| UCUCUUUGUAUCGAUCUCUU (ssRNA) [Ib_S1_P3E.1_K3.1_C3.1_H3.1_A3.1_[A6C]_F3.1_[T7G]_T3.1] | 1020 |
| UCUCUUUGUAUUCGCUCUCUU (ssRNA) [Ic_S1_P4E.1_K4.1_C4.1_H4.1_A4.1_[A6T]_[T7C]_F4.1_[T8G]_[A9C]_T4.1] | 1060 |
| UCUCUUUGUAUCGCUUCUCUU (ssRNA) [Ic_S1_P4E.1_K4.1_C4.1_H4.1_A4.1_[A6C]_[T7G]_F4.1_[T8C]_[A9T]_T4.1] | 682 |
| UCUCUUUGUAUCCACUCUCUU (ssRNA) [Ic_S1_P4E.1_K4.1_C4.1_H4.1_A4.1_[A6C]_[T7C]_F4.1_[T8A]_[A9C]_T4.1] | 981 |
| UCUCUUUGUAAAAAUCUCUU (ssRNA) [Ic_S1_P3E.1_K3.1_C3.1_H3.1_A3.1_[T5A]_F3.1_[T7A]_T3.1] | 367 |
| UCUCUUUGUAUGUGUUCUCUU (ssRNA) [Ic_S1_P4E.1_K4.1_C4.1_H4.1_A4.1_[A6G]_F4.1_[T8G]_[A9T]_T4.1] | 92.5 |
| UCUCUUUGUAUGAUGUCUCUU (ssRNA) [Ic_S1_P4E.1_K4.1_C4.1_H4.1_A4.1_[A6G]_[T7A]_F4.1_[A9G]_T4.1] | 56.7 |
| UCUCUUUGUAUUGUGUCUCUU (ssRNA) [Ic_S1_P4E.1_K4.1_C4.1_H4.1_A4.1_[A6T]_[T7G]_F4.1_[A9G]_T4.1] | 40.2 |
| UCUCUUUGUAUCCGUUCUCUU (ssRNA) [Ic_S1_P4E.1_K4.1_C4.1_H4.1_A4.1_[A6C]_[T7C]_F4.1_[T8G]_[A9T]_T4.1] | 1300 |
| UCUCUUUGUAUCCUCUCUCUU (ssRNA) [Ic_S1_P4E.1_K4.1_C4.1_H4.1_A4.1_[A6C]_[T7C]_F4.1_[A9C]_T4.1] | 67.2 |
| UCUCUUUGUAUGACUUCUCUU (ssRNA) [Ic_S1_P4E.1_K4.1_C4.1_H4.1_A4.1_[A6G]_[T7A]_F4.1_[T8C]_[A9T]_T4.1] | 804 |
| UCUCUUUGUAUGUGGUCUCUU (ssRNA) [Ic_S1_P4E.1_K4.1_C4.1_H4.1_A4.1_[A6G]_F4.1_[T8G]_[A9G]_T4.1] | 1000 |
| UCUCUUUGUAUCUAGUCUCUU (ssRNA) [Ic_S1_P4E.1_K4.1_C4.1_H4.1_A4.1_[A6C]_F4.1_[T8A]_[A9G]_T4.1] | 43.8 |
| UCUCUUUGUAUCCAGUCUCUU (ssRNA) [Ic_S1_P4E.1_K4.1_C4.1_H4.1_A4.1_[A6C]_[T7C]_F4.1_[T8A]_[A9G]_T4.1] | 2020 |
| UCUCUUUGUAUGCAGUCUCUU (ssRNA) [Ic_S1_P4E.1_K4.1_C4.1_H4.1_A4.1_[A6G]_[T7C]_F4.1_[T8A]_[A9G]_T4.1] | > 2300 |
| UCUCUUUGUAUUAAUCUCUU (ssRNA) [Ib_S1_P3E.1_K3.1_C3.1_H3.1_A3.1_[A6T]_F3.1_[T7A]_T3.1] | 312 |
| UCUCUUUGUAUGUAUUCUCUU (ssRNA) [Ic_S1_P4E.1_K4.1_C4.1_H4.1_A4.1_[A6G]_F4.1_[T8A]_[A9T]_T4.1] | 71.2 |

| Binder | Kd [nM] |
| --- | --- |
| UCUCUUUGUAUCAGUUCUCUU (ssRNA) [Ic_S1_P4E.1_K4.1_C4.1_H4.1_A4.1_[A6C]_[T7A]_F4.1_[T8G]_[A9T]_T4.1] | 316 |
| UCUCUUUGUAUUCAUCUCUU (ssRNA) [Ib_S1_P3E.1_K3.1_C3.1_H3.1_A3.1_[A6T]_F3.1_[T7C]_T3.1] | 296 |
| UCUCUUUGUAUUCGGUCUCUU (ssRNA) [Ic_S1_P4E.1_K4.1_C4.1_H4.1_A4.1_[A6T]_[T7C]_F4.1_[T8G]_[A9G]_T4.1] | > 2300 |
| UCUCUUUGUAUUGCAUCUCUU (ssRNA) [Ic_S1_P4E.1_K4.1_C4.1_H4.1_A4.1_[A6T]_[T7G]_F4.1_[T8C]_T4.1] | 365 |
| UCUCUUUGUAUGCCAUCUCUU (ssRNA) [Ic_S1_P4E.1_K4.1_C4.1_H4.1_A4.1_[A6G]_[T7C]_F4.1_[T8C]_T4.1] | 472 |
| UCUCUUUGUAUCCAUUCUCUU (ssRNA) [Ic_S1_P4E.1_K4.1_C4.1_H4.1_A4.1_[A6C]_[T7C]_F4.1_[T8A]_[A9T]_T4.1] | 362 |
| UCUCUUUGUAUCAACUCUCUU (ssRNA) [Ic_S1_P4E.1_K4.1_C4.1_H4.1_A4.1_[A6C]_[T7A]_F4.1_[T8A]_[A9C]_T4.1] | 508 |
| UCUCUUUGUAUUGCUUCUCUU (ssRNA) [Ic_S1_P4E.1_K4.1_C4.1_H4.1_A4.1_[A6T]_[T7G]_F4.1_[T8C]_[A9T]_T4.1] | 443 |
| UCUCUUUGUAUUGCGUCUCUU (ssRNA) [Ic_S1_P4E.1_K4.1_C4.1_H4.1_A4.1_[A6T]_[T7G]_F4.1_[T8C]_[A9G]_T4.1] | 926 |
| UCUCUUUGUAUCGUGUCUCUU (ssRNA) [Ic_S1_P4E.1_K4.1_C4.1_H4.1_A4.1_[A6C]_[T7G]_F4.1_[A9G]_T4.1] | 432 |
| UCUCUUUGUAUCGACUCUCUU (ssRNA) [Ic_S1_P4E.1_K4.1_C4.1_H4.1_A4.1_[A6C]_[T7G]_F4.1_[T8A]_[A9C]_T4.1] | > 2300 |
| UCUCUUUGUAUUGCCUCUCUU (ssRNA) [Ic_S1_P4E.1_K4.1_C4.1_H4.1_A4.1_[A6T]_[T7G]_F4.1_[T8C]_[A9C]_T4.1] | 943 |
| UCUCUUUGUAUGCUCUCUCUU (ssRNA) [Ic_S1_P4E.1_K4.1_C4.1_H4.1_A4.1_[A6G]_[T7C]_F4.1_[A9C]_T4.1] | 677 |
| UCUCUUUGUAUCACAUCUCUU (ssRNA) [Ic_S1_P4E.1_K4.1_C4.1_H4.1_A4.1_[A6C]_[T7A]_F4.1_[T8C]_T4.1] | 74.8 |
| UCUCUUUGUAUCAGCUCUCUU (ssRNA) [Ic_S1_P4E.1_K4.1_C4.1_H4.1_A4.1_[A6C]_[T7A]_F4.1_[T8G]_[A9C]_T4.1] | 606 |
| UCUCUUUGUAUUGGCUCUCUU (ssRNA) [Ic_S1_P4E.1_K4.1_C4.1_H4.1_A4.1_[A6T]_[T7G]_F4.1_[T8G]_[A9C]_T4.1] | 1330 |
| UCUCUUUGUAUGAUCUCUCUU (ssRNA) [Ic_S1_P4E.1_K4.1_C4.1_H4.1_A4.1_[A6G]_[T7A]_F4.1_[A9C]_T4.1] | 148 |
| UCUCUUUGUAUCAAUCUCUU (ssRNA) [Ic_S1_P3E.1_K3.1_C3.1_H3.1_A3.1_[A6C]_F3.1_[T7A]_T3.1] | 108 |
| UCUCUUUGUAUCUGUUCUCUU (ssRNA) [Ic_S1_P4E.1_K4.1_C4.1_H4.1_A4.1_[A6C]_F4.1_[T8G]_[A9T]_T4.1] | 58.6 |
| UCUCUUUGUAUUGGUUCUCUU (ssRNA) [Ic_S1_P4E.1_K4.1_C4.1_H4.1_A4.1_[A6T]_[T7G]_F4.1_[T8G]_[A9T]_T4.1] | 500 |
| UCUCUUUGUAUCUCGUCUCUU (ssRNA) [Ic_S1_P4E.1_K4.1_C4.1_H4.1_A4.1_[A6C]_F4.1_[T8C]_[A9G]_T4.1] | 382 |
| UCUCUUUGUAUCGGUUCUCUU (ssRNA) [Ic_S1_P4E.1_K4.1_C4.1_H4.1_A4.1_[A6C]_[T7G]_F4.1_[T8G]_[A9T]_T4.1] | 938 |

| Binder | Kd [nM] |
| --- | --- |
| UCUCUUUGUAUCUACUCUCUU (ssRNA) [Ic_S1_P4E.1_K4.1_C4.1_H4.1_A4.1_[A6C]_F4.1_[T8A]_[A9C]_T4.1] | 28.9 |
| UCUCUUUGUAUCCCCUCUCUU (ssRNA) [Ic_S1_P4E.1_K4.1_C4.1_H4.1_A4.1_[A6C]_[T7C]_F4.1_[T8C]_[A9C]_T4.1] | 1020 |
| UCUCUUUGUAUCACCUCUCUU (ssRNA) [Ic_S1_P4E.1_K4.1_C4.1_H4.1_A4.1_[A6C]_[T7A]_F4.1_[T8C]_[A9C]_T4.1] | 432 |
| UCUCUUUGUAUCGGCUCUCUU (ssRNA) [Ic_S1_P4E.1_K4.1_C4.1_H4.1_A4.1_[A6C]_[T7G]_F4.1_[T8G]_[A9C]_T4.1] | 2020 |
| UCUCUUUGUAUCCUGUCUCUU (ssRNA) [Ic_S1_P4E.1_K4.1_C4.1_H4.1_A4.1_[A6C]_[T7C]_F4.1_[A9G]_T4.1] | 82.6 |
| UCUCUUUGUAUCCUUUCUCUU (ssRNA) [Ic_S1_P4E.1_K4.1_C4.1_H4.1_A4.1_[A6C]_[T7C]_F4.1_[A9T]_T4.1] | 44.9 |
| UCUCUUUGUAUGCAUUCUCUU (ssRNA) [Ic_S1_P4E.1_K4.1_C4.1_H4.1_A4.1_[A6G]_[T7C]_F4.1_[T8A]_[A9T]_T4.1] | 565 |
| UCUCUUUGUAUGUACUCUCUU (ssRNA) [Ic_S1_P4E.1_K4.1_C4.1_H4.1_A4.1_[A6G]_F4.1_[T8A]_[A9C]_T4.1] | 41.5 |
| UCUCUUUGUAUGCUGUCUCUU (ssRNA) [Ic_S1_P4E.1_K4.1_C4.1_H4.1_A4.1_[A6G]_[T7C]_F4.1_[A9G]_T4.1] | 685 |
| UCUCUUUGUAUCAAUUCUCUU (ssRNA) [Ic_S1_P4E.1_K4.1_C4.1_H4.1_A4.1_[A6C]_[T7A]_F4.1_[T8A]_[A9T]_T4.1] | 91.5 |
| UCUCUUUGUAUCAUCUCUCUU (ssRNA) [Ic_S1_P4E.1_K4.1_C4.1_H4.1_A4.1_[A6C]_[T7A]_F4.1_[A9C]_T4.1] | 17.6 |
| UCUCUUUGUAUCCCGUCUCUU (ssRNA) [Ic_S1_P4E.1_K4.1_C4.1_H4.1_A4.1_[A6C]_[T7C]_F4.1_[T8C]_[A9G]_T4.1] | > 2300 |
| UCUCUUUGUAUGUCCUCUCUU (ssRNA) [Ic_S1_P4E.1_K4.1_C4.1_H4.1_A4.1_[A6G]_F4.1_[T8C]_[A9C]_T4.1] | 564 |
| UCUCUUUGUAUUGUUUCUCUU (ssRNA) [Ic_S1_P4E.1_K4.1_C4.1_H4.1_A4.1_[A6T]_[T7G]_F4.1_[A9T]_T4.1] | 33.6 |
| UCUCUUUGUAUGCUUUCUCUU (ssRNA) [Ic_S1_P4E.1_K4.1_C4.1_H4.1_A4.1_[A6G]_[T7C]_F4.1_[A9T]_T4.1] | 96.1 |
| UCUCUUUGUAUGCAAUCUCUU (ssRNA) [Ic_S1_P4E.1_K4.1_C4.1_H4.1_A4.1_[A6G]_[T7C]_F4.1_[T8A]_T4.1] | 516 |
| UCUCUUUGUAUCUCUUCUCUU (ssRNA) [Ic_S1_P4E.1_K4.1_C4.1_H4.1_A4.1_[A6C]_F4.1_[T8C]_[A9T]_T4.1] | 522 |
| UCUCUUUGUAUGCAUCUCUU (ssRNA) [Ic_S1_P3E.1_K3.1_C3.1_H3.1_A3.1_[A6G]_F3.1_[T7C]_T3.1] | 1280 |
| UCUCUUUGUAUCGAUUCUCUU (ssRNA) [Ic_S1_P4E.1_K4.1_C4.1_H4.1_A4.1_[A6C]_[T7G]_F4.1_[T8A]_[A9T]_T4.1] | 581 |
| UCUCUUUGUAUCGUUUCUCUU (ssRNA) [Ic_S1_P4E.1_K4.1_C4.1_H4.1_A4.1_[A6C]_[T7G]_F4.1_[A9T]_T4.1] | 328 |
| UCUCUUUGUAUCAUGUCUCUU (ssRNA) [Ic_S1_P4E.1_K4.1_C4.1_H4.1_A4.1_[A6C]_[T7A]_F4.1_[A9G]_T4.1] | 8.82 |
